Assay results published in patent publication US20220403013A1.

Target: malondialdehyde-modified LDL (MDA-LDL), human (human) (UniProt P04114)
Assay: ELISA, MDA-LDL immobilised on plate, antibody titrated (0.01-50 µg/ml), HRP anti-human IgG detection

## orticumab (antibody)
  Kd: 8 nM
